Target: the molecule itself
Assay: cryo-EM structure; 2D class averages of endophilin-only coat on lipid tubules: 11 µM protein, DOPS liposomes (0.5 g/l), GTPase buffer, 30 min room temperature

B1: Rat endophilinA1 (natural protein, UniProt O35179 1-352, looked up)
chain: MSVAGLKKQFHKATQKVSEKVGGAEGTKLDDDFKEMERKVDVTSRAVMEIMTKTIEYLQPNPASRAKLSMINTMSKIRGQEKGPGYPQAEALLAEAMLKFGRELGDDCNFGPALGEVGEAMRELSEVKDSLDMEVKQNFIDPLQNLHDKDLREIQHHLKKLEGRRLDFDYKKKRQGKIPDEELRQALEKFDESKEIAESSMFNLLEMDIEQVSQLSALVQAQLEYHKQAVQILQQVTVRLEERIRQASSQPRREYQPKPRMSLEFATGDGTQPNGGLSHTGTPKPAGVQMDQPCCRALYDFEPENEGELGFKEGDIITLTNQIDENWYEGMLHGQSGFFPINYVEILVALPH
notes: Rat endophilinA1, wild type and full-length; source: E. coli, pGEX-6P vector, purified (glutathione Sepharose, PreScission cleavage)
Q: Does B1 bind?
A: Result: binds

Source: PMC5663480, “Structural inhibition of dynamin-mediated membrane fission by endophilin” (eLife, 2017)
